Measured values published in patent US20250282852A1 (SINOMAB BIOSCIENCE, published 2025).

Experiments:
CD33 on HMC-3 cells = target: T1, CD33 on HMC-3 cells (human, UniProt P20138 18-364); assay: flow cytometry on fixed HMC-3 cells, 10 µg/mL, anti-human Fc Alexa Fluor 488; graded + (weakest) to +++++ (highest)
T1 construct: Native antigen on HMC-3
Method: The binding of different bispecific antibodies to HMC-3 cells is evaluated. Briefly, HMC-3 cells are seeded onto 6 well plate at a density of […]. After plating and culture for overnight, cells are detached with TrypLE™ Express enzyme. Cells are centrifuged at 300 g for 5 minutes. Cell pellets are washed once with phosphate buffer saline (pH7.4). Cells are fixed with 4% PFA in PBS for 5 minutes at room temperature. Cells are washed once with PBS. Bispecifc antibodies at a concentration of10 μg/mL are incubated with HMC-3 for 1 hour at room temperature. Cells are then washed twice with PBS. Cells are incubated with anti-human Fc Alexafluor 488-conjugated antibody diluted 1:1000 in PBS for 1 hour at room temperature. Cells are washed twice with PBS. Cell are centrifuged at 300 g for 5 minutes. Cell pellet is resuspended with 1% BSA in PBS and proceed to flow cytometry. FIG. 5 illustrates a representative result of HMC-3 cell binding by SM03-Adu.

[1] = target: T2, human CD22 protein (Sino Biological) (human); assay: ELISA on coated human CD22 protein, anti-human Fc HRP detection
T2 construct: Bought protein coated on ELISA strips
Method: The binding of the different bispecific antibodies to their respective antigens is tested with standard ELISA method known to those skilled in the art. Using SM03-Adu as an example, 2 μg/mL of human CD22 protein (Sino Biological) or 5 μg/mL of Aβ oligomer are coated separately onto ELISA stripes (Santa Cruz) overnight at 4° C. or 1 hour at room temperature, respectively. ELISA stripes are blocked with 1% BSA in PBS. Stripes are washed 2 times with PBS. Bispecific antibodies are added in the following concentration, e.g. 10 μg/mL, 2 μg/mL, 0.4 μg/mL, 0.08 μg/mL, 0.016 μg/mL, 0.0032 μg/mL, 0.00064 μg/mL and incubated for 1 hour at room temperature. Stripes are washed 3 times with PBS. Stripes are incubated with anti-human Fc HRP-conjugated antibody diluted 1:6000 in PBS for 1 hour at room temperature. Fifty μL TMB (Invitrogem) is then added. After 30 minutes incubation at room temperature, 50 μL stop solution (2N H2SO4) is added to stop the reaction. Coloration are read by plate reader.

T1 sequence (P20138 18-364 limits assumed): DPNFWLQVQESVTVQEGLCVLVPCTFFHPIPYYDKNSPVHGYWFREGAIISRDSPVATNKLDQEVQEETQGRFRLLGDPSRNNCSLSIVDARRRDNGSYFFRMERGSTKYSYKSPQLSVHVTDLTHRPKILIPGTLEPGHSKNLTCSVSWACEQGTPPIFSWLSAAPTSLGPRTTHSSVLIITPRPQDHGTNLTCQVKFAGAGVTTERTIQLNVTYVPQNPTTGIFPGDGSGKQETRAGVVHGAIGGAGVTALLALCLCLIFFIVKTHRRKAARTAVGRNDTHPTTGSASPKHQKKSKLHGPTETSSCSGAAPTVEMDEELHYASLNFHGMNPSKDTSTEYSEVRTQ

Binder | binding result (CD33 on HMC-3 cells) | EC50 (read off the curve) [1] [µg/mL]
Lin-Adu (bispecific antibody) heavy: not shown light: DIQMTQSPSSLSASVGDRVTITCRASESVDNYGISFMNWFQQKPGKAPKLLIYAASNQGSGVPSRFSGSGSGTDFTLTISSLQPDDFATYYCQQSKEVPWTFGQGTKVEIKRTVAAPSVFIFPPSDEQLKSGTASVVCLLNNFYPREAKVQWKVDNALQSGNSQESVTEQDSKDSTYSLSSTLTLSKADYEKHKVYACEVTHQGLSSPVTKSFNRGEC | binds | 
SM06-Adu (bispecific antibody) heavy: not shown light: DIQLTQSPSSLSASVGDRVTISCRASQDISNYLNWYQQKPGKAPKLLIYYTSILHSGVPSRFSGSGSGTEFTLTISSLQPEDFATYFCQQGNTLPWTFGGGTKVEIKRTVAAPSVFIFPPSDEQLKSGTASVVCLLNNFYPREAKVQWKVDNALQSGNSQESVTEQDSKDSTYSLSSTLTLSKADYEKHKVYACEVTHQGLSSPVTKSFNRGEC |  | ~0.1
